{
  "source": "paper PMC5737116",
  "about": "“Biochemical Properties of Human D-Amino Acid Oxidase” (Frontiers in Molecular Biosciences, 2017)",
  "conditions_in_all_cases": "other: apparent, 21% oxygen saturation, pH 8.5, 25°C",
  "key": {"[1]": {"system": "N[C@H](Cc1ccc(O)c(O)c1)C(=O)O", "test": "purified protein, by the assay type"}, "[2]": {"system": "T1, N[C@H](CS)C(=O)O", "T1 construct": "made in house; host or cells: E. coli", "test": "Oxygen-consumption activity assay, apparent kinetic parameters (substrate specificity)", "type": "biochemical, human"}, "[3]": {"system": "T2, N[C@@H]1CON=C1O", "T2 construct": "made in house; host or cells: E. coli", "test": "Oxygen-consumption activity assay, apparent kinetic parameters (substrate specificity)", "type": "biochemical, human"}},
  "data": [
    {"substance": "human DAAO (Homo sapiens)", "values": [
      {"measurement": "Km", "setting": "[1]", "value": 6, "unit": "mM"},
      {"measurement": "kcat", "setting": "[1]", "value": "40.5 ± 5.1 [21.7]^d s^−1"},
      {"measurement": "kcat/Km", "setting": "[1]", "value": "6.75 [14.4]^d mM^−1 x s^−1"},
      {"measurement": "Km", "setting": "[2]", "value": "0.6 ± 0.1", "unit": "mM"},
      {"measurement": "kcat", "setting": "[2]", "value": "8.6 ± 0.2", "unit": "s⁻¹"},
      {"measurement": "kcat/Km", "setting": "[2]", "value": 14600, "unit": "M⁻¹ s⁻¹"},
      {"measurement": "Km", "setting": "[3]", "value": "83.5 ± 15.0", "unit": "mM"},
      {"measurement": "kcat", "setting": "[3]", "value": "0.77 ± 0.05", "unit": "s⁻¹"},
      {"measurement": "kcat/Km", "setting": "[3]", "value": 9, "unit": "M⁻¹ s⁻¹"}
    ]}
  ]
}
